The RNAGym collection of RNA variant scans (doi:10.1093/molbev/msab373)

B1: Azoarcus group I ribozyme (parent)
chain: GUGCCUUGCGCCGGGAAACCACGCAAGGGAUGGUGUCAAAUUCGGCGAAACCUAAGCGCCCGCCCGGGCGUAUGGCAACGCCGAGCCAAGCUUCGGCGCCUGCGCCGAUGAAGGUGUAGAGACUAGACGGCACCCACCUAAGGCAAACGCUAUGGUGAAGGCAUAGUCCAGGGAGUGGCGAAAGUCACACAAACCGG

Variants of: B1
Experiment: reverse-splicing fitness (ratio to wild type); higher = more active; in vitro selection; Mg2+ level not given
In short: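 An in vitro group I ribozyme library with randomized positions was T7-transcribed and gel-purified. In triplicate, 10 pmol RNA in EPPS pH 7.5 was reacted with 50 pmoles of a 30-nt RNA substrate for 1 h at 37 °C across several added MgCl2 levels (1–48 mM), then stopped with EDTA. Products were reverse transcribed from a substrate-complementary primer, PCR-amplified and sequenced (HiSeq 4000). Fitness is a variant's read proportion after selection over that before, normalised to wild type.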

Point of comparison: A120C A145U C150A C169U U176G, reverse-splicing fitness 0.0079. Against it:
- A120G A145U C150A C169A U176C — higher, 0.035
- A120C A145U C169U U176C — higher, 0.187
- A120C A145U C169U U176A — higher, 0.143
- A120C A145U C169U U176G — higher, 0.0184
- A120C A145U C150G C169G U176A — lower, 0.00633
- A120C A145U C150G C169G U176G — lower, 0.00367
- A120C A145U C150G C169G U176C — lower, 0.00537
- A120C A145G C150U C169A U176C — higher, 0.0196
- A120C A145G C150U C169A U176A — higher, 0.0167
- A120C A145G C150U C169A U176G — lower, 0.00444
- A120G A145G C150A C169G — higher, 0.141
- A120G A145G C150A C169A — higher, 0.0788
- A120G A145G C150A C169U — higher, 0.107
- A120G A145G C150G C169G U176G — lower, 0.00607
- A120G A145G C150G C169G U176A — higher, 0.0179
- A120G A145G C150G C169G U176C — higher, 0.0152
- A120C C150G U176C — higher, 0.114
- A120C C150G U176G — higher, 0.0145
- A120C C150G U176A — higher, 0.0876
- A120C A145U C150U C169G — higher, 0.0196
- A120C A145U C150U C169U — higher, 0.329
- A120C A145U C150U C169A — higher, 0.0252
- A120G A145C C169A U176C — higher, 0.157
- A120G A145C C169A U176A — higher, 0.0967
- A120G A145C C169A U176G — lower, 0.0075
- A120G A145U C150G C169A U176C — higher, 0.0317
- A120G A145U C150G C169A U176G — lower, 0.00439
- A120G A145U C150G C169A U176A — higher, 0.0196
- A120C A145U C150A C169A U176G — lower, 0.00377
- A120C A145U C150A C169A U176A — higher, 0.0124
- A120C A145U C150A C169A U176C — lower, 0.00632
- A120C C169A — higher, 0.0364
- A120C C169U — higher, 0.435
- A120C C169G — higher, 0.029
- A120G A145G C150G C169A U176A — higher, 0.0181
- A120G A145G C150G C169A U176C — higher, 0.0319
- A120G A145G C150G C169A U176G — lower, 0.00777
- A120C C150A C169U — higher, 0.098
- A120C C150A C169G — higher, 0.00864
- A120C C150A C169A — higher, 0.0141
- A120G A145G C150G C169U U176C — higher, 0.0556
- A120G A145G C150G C169U U176A — higher, 0.0263
- A120G A145G C150G C169U U176G — lower, 0.00777
- A120C A145G C150U C169G U176A — higher, 0.014
- A120C A145G C150U C169G U176G — lower, 0.004
- A120C A145G C150U C169G U176C — higher, 0.0182
- A120C A145G C169G — higher, 0.0256
- A120C A145G C169A — higher, 0.0366
- A120C A145G C169U — higher, 0.47
- A120C C150A C169G U176A — higher, 0.0161
- A120C C150A C169G U176C — higher, 0.0156
- A120C C150A C169G U176G — lower, 0.00418
- A120G A145C C169G — higher, 0.614
- A120G A145C C169U — higher, 0.435
- A120G A145C C169A — higher, 0.41
- A120G A145G — higher, 0.503
- A120G A145C — higher, 0.479
- A120G A145U — higher, 0.508
- A120G — higher, 0.549
- A120G A145C C150G C169A U176G — lower, 0.00448
- A120G A145C C150G C169A U176A — higher, 0.016
- A120G A145C C150G C169A U176C — higher, 0.031
- A120G A145G C150A — higher, 0.0988
- A120G A145G C150U — higher, 0.436
- A120G A145G C150G — higher, 0.088
- A120C A145U C150A C169G — lower, 0.00666
- A120C A145U C150A C169A — higher, 0.00801
- A120C A145U C150A C169U — higher, 0.0832
- A120G A145C C150G C169U U176A — higher, 0.0356
- A120G A145C C150G C169U U176G — lower, 0.00576
- A120G A145C C150G C169U U176C — higher, 0.054
- A120G A145G C150U U176C — higher, 0.212
- A120G A145G C150U U176G — higher, 0.0181
- A120G A145G C150U U176A — higher, 0.151
- A120G A145C C150U U176A — higher, 0.0853
- A120G A145C C150U U176C — higher, 0.0938
- A120G A145C C150U U176G — higher, 0.0108
- A120C A145U C150A C169G U176C — higher, 0.0105
- A120C A145U C150A C169G U176G — lower, 0.00376
- A120C A145U C150A C169G U176A — higher, 0.00974
- A120G A145C C150G U176G — lower, 0.0061
- A120G A145C C150G U176A — higher, 0.0444
- A120G A145C C150G U176C — higher, 0.0556
- A120G A145U C150G U176A — higher, 0.0351
- A120G A145U C150G U176C — higher, 0.0502
- A120G A145U C150G U176G — lower, 0.00612
- A120G A145G C150A U176A — higher, 0.0568
- A120G A145G C150A U176C — higher, 0.0809
- A120G A145G C150A U176G — higher, 0.0109
- A120C A145U C150G C169G — lower, 0.00781
- A120C A145U C150G C169A — higher, 0.00905
- A120C A145U C150G C169U — higher, 0.107
- A120G A145C U176C — higher, 0.227
- A120G A145C U176A — higher, 0.179
- A120G A145C U176G — higher, 0.0166
- A120G A145U C150U C169U U176C — higher, 0.162
- A120G A145U C150U C169U U176A — higher, 0.14
- A120G A145U C150U C169U U176G — higher, 0.0135
- A120G A145C C150U C169A U176G — lower, 0.00586
- A120G A145C C150U C169A U176A — higher, 0.0422
- A120G A145C C150U C169A U176C — higher, 0.0659
- A120C A145U C150G C169A U176C — higher, 0.00821
- A120C A145U C150G C169A U176G — lower, 0.0044
- A120C A145U C150G C169A U176A — higher, 0.0113
- A120C A145U C150G U176G — higher, 0.0206
- A120C A145U C150G U176A — higher, 0.137
- A120C A145U C150G U176C — higher, 0.156
- A120G A145G C169A — higher, 0.424
- A120G A145G C169G — higher, 0.639
- A120G A145G C169U — higher, 0.441
- A120G A145U C150A C169U U176C — higher, 0.0534
- A120G A145U C150A C169U U176A — higher, 0.0594
- A120G A145U C150A C169U U176G — lower, 0.00749
- A120C A145U C150A C169U U176A — higher, 0.0459
- A120C A145U C150A C169U U176C — higher, 0.0562
- A120C C150G C169G U176A — lower, 0.0074
- A120C C150G C169G U176C — lower, 0.00463
- A120C C150G C169G U176G — lower, 0.0036
- A120G A145U C150U C169G U176A — higher, 0.157
- A120G A145U C150U C169G U176C — higher, 0.207
- A120G A145U C150U C169G U176G — higher, 0.00892
- A120C A145U C150A U176G — higher, 0.0668
- A120C A145U C150A U176A — higher, 0.191
- A120C A145U C150A U176C — higher, 0.179
- A120G A145C C150A — higher, 0.0374
- A120G A145C C150G — higher, 0.0854
- A120G A145C C150U — higher, 0.166
- A120G A145G C150U C169A U176G — lower, 0.0072
- A120G A145G C150U C169A U176C — higher, 0.157
- A120G A145G C150U C169A U176A — higher, 0.0867
- A120G A145G C150G U176A — higher, 0.0423
- A120G A145G C150G U176C — higher, 0.0592
- A120G A145G C150G U176G — higher, 0.00816
- A120C C150U — higher, 0.723
- A120C C150G — higher, 0.187
- A120C C150A — higher, 0.241
- A120G A145G C169G U176C — higher, 0.268
- A120G A145G C169G U176A — higher, 0.221
- A120G A145G C169G U176G — higher, 0.0103
- A120C C169G U176C — higher, 0.0166
- A120C C169G U176A — higher, 0.016
- A120C C169G U176G — lower, 0.0039
- A120C C150U C169U — higher, 0.345
- A120C C150U C169A — higher, 0.0269
- A120C C150U C169G — higher, 0.0172
- A120G A145G C150A C169A U176A — higher, 0.0345
- A120G A145G C150A C169A U176G — lower, 0.00587
- A120G A145G C150A C169A U176C — higher, 0.0558
- A120C A145G C150U U176A — higher, 0.626
- A120C A145G C150U U176G — higher, 0.179
- A120C A145G C150U U176C — higher, 0.566
- A120C C169A U176G — lower, 0.00454
- A120C C169A U176A — higher, 0.0173
- A120C C169A U176C — higher, 0.0233
- A120G A145G C150G C169A — higher, 0.0607
- A120G A145G C150G C169G — higher, 0.106
- A120G A145G C150G C169U — higher, 0.094
- A120C A145U C150A — higher, 0.215
- A120C A145U C150G — higher, 0.262
- A120C A145U C150U — higher, 0.744
- A120C A145G U176G — higher, 0.212
- A120C A145G U176C — higher, 0.652
- A120C A145G U176A — higher, 0.707
- A120C A145G C169U U176G — higher, 0.015
- A120C A145G C169U U176C — higher, 0.185
- A120C A145G C169U U176A — higher, 0.153
